Our source for the ATPase activity of purified cohesin in the presence of DNA with Scc2p, against wild-type cohesin with Scc2p; EnzChek phosphate assay (% greater than wild-type cohesin) and ATPase activity of purified cohesin in the presence of DNA, induction by Scc2p against that of wild-type cohesin; EnzChek phosphate assay (fold less than wild type) values is publication PMC10153460.

Assay [1] deals with smc1p-T1117I cohesin (S. cerevisiae) (UniProt P32908).
In assay [2] the target is cohesin with Smc1p-D1164E (S. cerevisiae) (UniProt P32908).
The target of assay [3] is cohesin with Smc1p-T1117W (S. cerevisiae) (UniProt P32908).

Sequence of smc1p-T1117I cohesin (S. cerevisiae) (P32908 whole entry T1117I, chain 1 of 4): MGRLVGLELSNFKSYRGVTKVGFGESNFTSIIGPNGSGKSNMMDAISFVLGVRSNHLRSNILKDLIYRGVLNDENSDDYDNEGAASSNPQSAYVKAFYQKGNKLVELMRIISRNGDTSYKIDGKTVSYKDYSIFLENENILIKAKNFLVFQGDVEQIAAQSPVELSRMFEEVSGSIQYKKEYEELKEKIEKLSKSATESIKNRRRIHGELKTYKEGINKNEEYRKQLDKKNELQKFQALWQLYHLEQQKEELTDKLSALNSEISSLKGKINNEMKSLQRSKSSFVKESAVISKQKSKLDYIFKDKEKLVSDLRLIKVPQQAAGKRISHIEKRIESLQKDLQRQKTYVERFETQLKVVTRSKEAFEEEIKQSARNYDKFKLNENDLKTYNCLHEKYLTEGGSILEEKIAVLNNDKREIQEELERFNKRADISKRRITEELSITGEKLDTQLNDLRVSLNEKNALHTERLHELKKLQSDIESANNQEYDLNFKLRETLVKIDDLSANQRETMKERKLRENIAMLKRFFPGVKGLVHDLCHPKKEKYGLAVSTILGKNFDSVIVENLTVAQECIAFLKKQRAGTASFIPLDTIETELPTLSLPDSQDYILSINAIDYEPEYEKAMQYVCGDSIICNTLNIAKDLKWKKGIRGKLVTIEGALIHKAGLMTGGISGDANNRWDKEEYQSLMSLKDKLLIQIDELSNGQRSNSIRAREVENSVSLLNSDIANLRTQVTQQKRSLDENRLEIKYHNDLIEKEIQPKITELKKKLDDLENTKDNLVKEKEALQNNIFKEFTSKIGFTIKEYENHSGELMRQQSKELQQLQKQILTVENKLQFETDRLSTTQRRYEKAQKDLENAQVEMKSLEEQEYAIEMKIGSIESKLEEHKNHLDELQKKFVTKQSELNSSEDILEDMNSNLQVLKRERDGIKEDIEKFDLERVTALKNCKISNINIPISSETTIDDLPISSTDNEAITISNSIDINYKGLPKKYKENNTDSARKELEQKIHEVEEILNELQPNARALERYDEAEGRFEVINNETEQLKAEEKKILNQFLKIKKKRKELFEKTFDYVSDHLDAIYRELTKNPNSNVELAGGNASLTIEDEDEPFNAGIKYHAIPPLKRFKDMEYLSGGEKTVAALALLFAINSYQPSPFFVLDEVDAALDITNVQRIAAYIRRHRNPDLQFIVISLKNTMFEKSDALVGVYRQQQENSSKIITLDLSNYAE
Sequence of smc1p-T1117I cohesin (S. cerevisiae) (P47037 whole entry, chain 2 of 4, further chain): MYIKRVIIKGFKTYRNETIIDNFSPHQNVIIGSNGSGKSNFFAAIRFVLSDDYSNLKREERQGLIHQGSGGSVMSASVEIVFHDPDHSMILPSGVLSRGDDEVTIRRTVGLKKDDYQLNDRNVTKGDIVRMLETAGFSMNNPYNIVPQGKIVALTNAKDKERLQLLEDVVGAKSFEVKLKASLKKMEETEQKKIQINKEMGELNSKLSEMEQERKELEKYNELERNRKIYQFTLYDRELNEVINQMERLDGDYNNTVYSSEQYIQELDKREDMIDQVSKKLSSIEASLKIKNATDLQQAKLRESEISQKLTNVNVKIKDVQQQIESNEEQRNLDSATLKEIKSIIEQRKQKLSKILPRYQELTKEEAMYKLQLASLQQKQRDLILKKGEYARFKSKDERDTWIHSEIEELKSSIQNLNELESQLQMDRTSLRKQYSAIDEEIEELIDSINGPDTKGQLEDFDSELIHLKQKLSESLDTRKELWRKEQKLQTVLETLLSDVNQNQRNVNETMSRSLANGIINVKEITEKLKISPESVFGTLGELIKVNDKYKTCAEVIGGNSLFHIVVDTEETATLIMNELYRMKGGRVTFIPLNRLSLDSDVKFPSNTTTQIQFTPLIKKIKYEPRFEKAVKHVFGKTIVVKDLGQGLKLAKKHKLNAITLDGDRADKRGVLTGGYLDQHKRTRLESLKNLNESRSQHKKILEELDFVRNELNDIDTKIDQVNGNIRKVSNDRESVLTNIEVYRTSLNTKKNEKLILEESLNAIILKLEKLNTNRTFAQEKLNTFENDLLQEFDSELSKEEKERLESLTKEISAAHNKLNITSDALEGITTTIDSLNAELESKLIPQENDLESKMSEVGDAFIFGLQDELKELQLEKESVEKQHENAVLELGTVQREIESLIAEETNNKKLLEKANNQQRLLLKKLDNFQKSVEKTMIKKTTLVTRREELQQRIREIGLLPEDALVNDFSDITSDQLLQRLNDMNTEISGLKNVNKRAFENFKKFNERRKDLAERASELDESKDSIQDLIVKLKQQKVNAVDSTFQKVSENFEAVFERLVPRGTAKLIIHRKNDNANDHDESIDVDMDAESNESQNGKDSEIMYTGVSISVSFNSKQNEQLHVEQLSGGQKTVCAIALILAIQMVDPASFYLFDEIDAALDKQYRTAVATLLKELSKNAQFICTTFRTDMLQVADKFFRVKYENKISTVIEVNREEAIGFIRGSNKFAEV
Sequence of smc1p-T1117I cohesin (S. cerevisiae) (Q12158 whole entry, chain 3 of 4, further chain): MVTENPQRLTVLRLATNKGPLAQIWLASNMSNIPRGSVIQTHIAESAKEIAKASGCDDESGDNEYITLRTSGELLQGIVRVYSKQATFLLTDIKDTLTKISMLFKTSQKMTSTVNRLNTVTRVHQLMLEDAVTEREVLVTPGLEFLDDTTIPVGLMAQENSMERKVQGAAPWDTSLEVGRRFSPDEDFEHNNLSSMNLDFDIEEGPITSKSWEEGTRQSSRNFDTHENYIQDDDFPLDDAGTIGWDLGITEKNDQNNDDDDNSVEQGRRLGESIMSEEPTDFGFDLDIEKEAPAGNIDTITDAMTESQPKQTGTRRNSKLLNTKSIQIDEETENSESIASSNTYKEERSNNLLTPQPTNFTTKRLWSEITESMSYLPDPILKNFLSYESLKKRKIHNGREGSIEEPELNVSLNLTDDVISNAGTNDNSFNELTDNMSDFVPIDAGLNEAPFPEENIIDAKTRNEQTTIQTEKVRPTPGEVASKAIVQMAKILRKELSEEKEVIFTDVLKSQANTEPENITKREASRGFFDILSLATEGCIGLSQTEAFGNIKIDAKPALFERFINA
Sequence of smc1p-T1117I cohesin (S. cerevisiae) (P40541 whole entry, chain 4 of 4, further chain): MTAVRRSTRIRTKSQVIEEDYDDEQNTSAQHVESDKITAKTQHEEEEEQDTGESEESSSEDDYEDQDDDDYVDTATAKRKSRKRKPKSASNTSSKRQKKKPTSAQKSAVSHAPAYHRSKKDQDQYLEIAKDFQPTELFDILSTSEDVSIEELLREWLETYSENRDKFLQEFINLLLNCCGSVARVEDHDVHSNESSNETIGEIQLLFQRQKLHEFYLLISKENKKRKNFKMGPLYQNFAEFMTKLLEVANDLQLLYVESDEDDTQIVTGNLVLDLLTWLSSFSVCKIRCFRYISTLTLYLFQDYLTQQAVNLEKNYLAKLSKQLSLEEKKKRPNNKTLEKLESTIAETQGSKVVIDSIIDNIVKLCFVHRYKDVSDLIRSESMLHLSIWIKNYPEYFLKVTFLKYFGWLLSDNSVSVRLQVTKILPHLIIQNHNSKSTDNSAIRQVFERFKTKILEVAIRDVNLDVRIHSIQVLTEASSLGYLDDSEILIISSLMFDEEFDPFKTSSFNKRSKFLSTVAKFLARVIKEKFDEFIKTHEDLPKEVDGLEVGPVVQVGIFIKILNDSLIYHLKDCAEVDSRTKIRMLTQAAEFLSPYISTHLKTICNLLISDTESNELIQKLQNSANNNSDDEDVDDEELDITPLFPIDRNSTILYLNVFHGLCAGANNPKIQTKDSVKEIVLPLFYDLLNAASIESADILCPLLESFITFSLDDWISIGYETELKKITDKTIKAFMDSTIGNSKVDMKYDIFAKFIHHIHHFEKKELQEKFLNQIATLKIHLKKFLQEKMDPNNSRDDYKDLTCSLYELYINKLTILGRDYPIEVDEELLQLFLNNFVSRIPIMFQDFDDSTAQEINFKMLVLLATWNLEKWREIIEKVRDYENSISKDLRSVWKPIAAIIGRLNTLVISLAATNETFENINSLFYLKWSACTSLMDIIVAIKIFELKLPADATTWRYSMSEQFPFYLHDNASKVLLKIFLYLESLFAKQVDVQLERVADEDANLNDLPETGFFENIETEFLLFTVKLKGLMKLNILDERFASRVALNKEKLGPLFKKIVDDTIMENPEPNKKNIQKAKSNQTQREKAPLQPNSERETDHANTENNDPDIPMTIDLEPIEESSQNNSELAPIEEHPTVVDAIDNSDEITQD

Consider “Scc2p/Scc4p (cohesin loader) (from UniProt Q04002 1-1493; P40090 1-624) (complex)”, for which the ATPase activity of purified cohesin in the presence of DNA with Scc2p, against wild-type cohesin with Scc2p; EnzChek phosphate assay (% greater than wild-type cohesin) in assay [1] was 50. In addition, the ATPase activity of purified cohesin in the presence of DNA, induction by Scc2p against that of wild-type cohesin; EnzChek phosphate assay (fold less than wild type) in assay [2] and in assay [3] was 2 throughout.
